Numbering of substitutions follows the chain as printed. Numbers in names are those of the source.
B1: 3X-Flag tagged full length human MIDN^WT (midnolin, 468-aa isoform) (natural protein)
chain: MEPQPGGARSCRRGAPGGACELGPAAEAAPMSLAIHSTTGTRYDLAVPPDETVEGLRKRLSQRLKVPKERLALLHKDTRLSSGKLQEFGVGDGSKLTLVPTVEAGLMSQASRPEQSVMQALESLTETQVSDFLSGRSPLTLALRVGDHMMFVQLQLAAQHAPLQHRHVLAAAAAAAAARGDPSIASPVSSPCRPVSSAARVPPVPTSPSPASPSPITAGSFRSHAASTTCPEQMDCSPTASSSASPGASTTSTPGASPAPRSRKPGAVIESFVNHAPGVFSGTFSGTLHPNCQDSSGRPRRDIGTILQILNDLLSATRHYQGMPPSLAQLRCHAQCSPASPAPDLAPRTTSCEKLTAAPSASLLQGQSQIRMCKPPGDRLRQTENRATRCKVERLQLLLQQKRLRRKARRDARGPYHWSPSRKAGRSDSSSSGGGGSPSEASGLGLDFEDSVWKPEVNPDIKSEFVVA
B2: 3X-Flag tagged full length human MIDN N385A (purified) (natural protein)
chain: B1 chain with N385A
B3: 3X-Flag tagged full length human MIDN K391A (purified) (natural protein)
chain: B1 chain with K391A
B4: 3X-Flag tagged full length human MIDN L395K (purified) (natural protein)
chain: B1 chain with L395K
B5: 3X-Flag tagged full length human MIDN L399K (purified) (natural protein)
chain: B1 chain with L399K
B6: 3X-Flag tagged full length human MIDN R403A (purified) (natural protein)
chain: B1 chain with R403A
B7: 3X-Flag tagged full length human MIDN R406A (purified) (natural protein)
chain: B1 chain with R406A

target: human 26S proteasome (proteasome holoenzyme: 20S core particle with 19S regulatory particle) (human, UniProt P35998;P62191;P43686;P62333;P17980;P62195;Q13200;Q99460;O43242;O00232;O00231;Q15 …); test: pull-down

Binding result, binds:
B1, B2, B3, B4, B5, B6, B7

target: HA-tagged MIDN^△α-Helix-C (human) (UniProt Q504T8); test: co-IP

Reduction of binding relative to WT MIDN, 60%:
Flag-tagged RPN11 (from UniProt O00487 1-310) (enzyme)

— article doi:10.1101/2025.03.04.641557 (bioRxiv, 2025)
